Reference: US5733730, “Telomere repeat binding factor and diagnostic and therapeutic use thereof” (The Rockefeller University)

Experiments:
[1] = target: TRF (HTRF4.1, TRF1) partial ORF from N-terminal XhoI site to stop (Homo sapiens, UniProt P54274 SEQ:45-439); test: EMSA; reticulocyte lysate; no complex without TRF cDNA; text of Example 4 prints probe as (TTAGGG)2; conditions: tags: His6 (pET28b, Novagen) N-terminal fusion; label: radiolabelled
Source text: Proof that the cDNAs encode TRF activity. One of the human cDNAs (HTRF4.1) was used to construct a fusion protein in which part of the TRF open reading frame from the N-terminal Xho I site to the natural termination codon at the Hind III site was inserted into the pET28b His6Tag expression vector from Novagen (Madison, Wis.). This new, chimeric open reading frame contained an initiator ATG codon with "Kozak rules" environment at its 5' end as well as an T7 RNA polymerase promoter sequence upstream. This construct was used for in vitro coupled transcription/translation (using a kit from Promega) resulting in synthetic protein (labelled with […]) with an apparent molecular weight (MW) of 60 kD. The in vitro synthesized protein was used in a gel-shift assay with a double stranded (TTAGGG)_2 repeat probe and shown to form a complex that migrates close to the HeLa TRF gel-shift complex.

[2] = target: T1, TRF (MTRF12, full length) (Mus musculus, UniProt P70371 P70371:1-421); test: EMSA; reticulocyte lysate; complex co-migrates with J558 mouse TRF; conditions: label: radiolabelled
T1 sequence: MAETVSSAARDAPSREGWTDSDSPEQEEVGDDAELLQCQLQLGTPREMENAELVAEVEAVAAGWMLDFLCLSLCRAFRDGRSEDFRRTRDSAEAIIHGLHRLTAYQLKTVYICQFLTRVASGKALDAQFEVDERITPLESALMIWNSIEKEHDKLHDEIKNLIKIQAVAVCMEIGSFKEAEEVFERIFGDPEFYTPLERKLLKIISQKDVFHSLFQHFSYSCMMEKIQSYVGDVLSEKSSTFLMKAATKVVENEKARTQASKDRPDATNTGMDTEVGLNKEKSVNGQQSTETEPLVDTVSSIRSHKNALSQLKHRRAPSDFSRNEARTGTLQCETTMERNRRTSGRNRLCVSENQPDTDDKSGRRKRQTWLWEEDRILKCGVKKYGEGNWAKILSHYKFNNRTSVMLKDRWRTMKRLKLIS
Source text: The mouse cDNA (MTRF12) contained its own initiator codon and was transcribed and translated without further modification using the T3 promoter in its pBluescript vector. Similar to the human cDNA, a ~60 kD protein was synthesized that bound TTAGGG repeats but not TYGGGG or TTAGGC repeats (FIG. 6).

[3] = target: T2, TRF purified from HeLa nuclear extract (Homo sapiens, UniProt P54274 SEQ:1-439); test: EMSA; column fractions in 100 mM KCl, 20 mM HEPES, 3 mM MgCl2, 20% glycerol, 0.1% NP-40; binding lost when highly purified, rescued by casein; conditions: label: radiolabelled
T2 chain: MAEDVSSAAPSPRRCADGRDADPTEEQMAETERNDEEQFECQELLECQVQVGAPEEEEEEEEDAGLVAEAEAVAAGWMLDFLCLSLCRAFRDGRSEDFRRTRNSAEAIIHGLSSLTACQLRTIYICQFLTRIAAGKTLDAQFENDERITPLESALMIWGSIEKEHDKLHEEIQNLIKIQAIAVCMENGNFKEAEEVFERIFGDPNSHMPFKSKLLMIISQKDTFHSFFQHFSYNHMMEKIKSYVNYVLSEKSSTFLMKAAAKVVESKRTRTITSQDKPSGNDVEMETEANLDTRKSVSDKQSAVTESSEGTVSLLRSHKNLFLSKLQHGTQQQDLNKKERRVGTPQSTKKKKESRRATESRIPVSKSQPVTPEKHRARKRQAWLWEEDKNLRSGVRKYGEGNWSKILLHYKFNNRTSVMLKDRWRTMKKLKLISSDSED
Experimental: TRF was isolated from a total of 9.2×10^11 HeLa Cells, equivalent to 940 liters of culture (in Joklik's Media, supplemented with bovine calf serum, 2 mM L-glutamine, 0.1 mM non-essential amino acids, and penicillin/streptomycin). A nuclear extract containing 4 grams of protein and about 650 pmol of TRF (1 pmol TRF is defined as the amount of protein required to complex 1 pmol of labelled probe), as determined by quantitation using a PhosphoImager, was obtained from the cells and the soluble fraction was then purified over a series of ion exchange and affinity columns, as noted above. For each column, the sample was loaded in buffer containing 100 mM KCl and the flow-through was reloaded. The columns were developed in buffer with increasing potassium chloride salt concentration, with a final stripping of the column with 1M salt. All fractions were dialyzed to 100 mM KCl, 20 mM HEPES, 3 mM MgCl_2, 20% glycerol, and 0.1% NP-40 (nonidet-P40). Activity was determined by gel shift assay using a probe of 145 bp fragment containing (TTAGGG)_2 having the following sequence (SEQ D NO:21): […]

B1: (TTAGGG)12 restriction fragment probe (dsDNA)
DNA 1: TTAGGGTTAGGGTTAGGGTTAGGGTTAGGGTTAGGGTTAGGGTTAGGGTTAGGGTTAGGGTTAGGGTTAGGG
DNA 2: CCCTAACCCTAACCCTAACCCTAACCCTAACCCTAACCCTAACCCTAACCCTAACCCTAACCCTAACCCTAA
B1: binds [1]; binds [2].

B2: 145 bp TTAGGG repeat gel-shift probe (dsDNA)
DNA 1: GTACCCGGGGATCGTGACTCTAGAGGGGCCCTAACCCTAACCCTAACCCTAACCCTAACCCTAACCCTAACCCTAACCCTAACCCTAACCCTAACCCTAACCCTAACCCGGGTCGAATTCGATCTCTAGAGTCGACCTGCAGGCATGC
DNA 2: GCATGCCTGCAGGTCGACTCTAGAGATCGAATTCGACCCGGGTTAGGGTTAGGGTTAGGGTTAGGGTTAGGGTTAGGGTTAGGGTTAGGGTTAGGGTTAGGGTTAGGGTTAGGGTTAGGGCCCCTCTAGAGTCACGATCCCCGGGTAC
B2: binds [3].
